The text below walks through data of US20180072782A1 (UNIVERSITY OF GEORGIA RESEARCH FOUNDATION, published 2018).

Bridges are numbered along the chain shown (N, C = ends). [ ]: non-standard residue; d: D form. The star is where a group is joined. Biotin = O=C1N[C@H]2[C@H](CS[C@H]2CCCCC(=O)*)N1; S5 = C=CCCC[C@](C)(N)C(=O)O; AEEEA = NCCOCCOCCOCC(=O)O

The assay addresses T1, Cytoplasmic FMR1-interacting protein 1 (CYFIP1), endogenous in MDA-MB-231 cells (human, UniProt Q7L576 1-1253).
T1 construct: Endogenous protein of a human breast cancer cell line, detected by western blot; also called SRA1
The assay can be described thus: avidin-biotin pull-down with biotinylated peptide from treated MDA-MB-231 cells, western blot. The procedure:
Specially, to determine the physical interaction with individual peptides, MDA-MB-231 cells were pretreated with 10 μM biotin-labeled peptides for 24 hours and lysates were incubated with immobilized avidin resin overnight at 4° C. The pull down samples were subjected to SDS-PAGE followed by Western blot analysis.
A general note: In western blotting, separated proteins are transferred to a membrane and probed.

T1 sequence (Q7L576 whole entry): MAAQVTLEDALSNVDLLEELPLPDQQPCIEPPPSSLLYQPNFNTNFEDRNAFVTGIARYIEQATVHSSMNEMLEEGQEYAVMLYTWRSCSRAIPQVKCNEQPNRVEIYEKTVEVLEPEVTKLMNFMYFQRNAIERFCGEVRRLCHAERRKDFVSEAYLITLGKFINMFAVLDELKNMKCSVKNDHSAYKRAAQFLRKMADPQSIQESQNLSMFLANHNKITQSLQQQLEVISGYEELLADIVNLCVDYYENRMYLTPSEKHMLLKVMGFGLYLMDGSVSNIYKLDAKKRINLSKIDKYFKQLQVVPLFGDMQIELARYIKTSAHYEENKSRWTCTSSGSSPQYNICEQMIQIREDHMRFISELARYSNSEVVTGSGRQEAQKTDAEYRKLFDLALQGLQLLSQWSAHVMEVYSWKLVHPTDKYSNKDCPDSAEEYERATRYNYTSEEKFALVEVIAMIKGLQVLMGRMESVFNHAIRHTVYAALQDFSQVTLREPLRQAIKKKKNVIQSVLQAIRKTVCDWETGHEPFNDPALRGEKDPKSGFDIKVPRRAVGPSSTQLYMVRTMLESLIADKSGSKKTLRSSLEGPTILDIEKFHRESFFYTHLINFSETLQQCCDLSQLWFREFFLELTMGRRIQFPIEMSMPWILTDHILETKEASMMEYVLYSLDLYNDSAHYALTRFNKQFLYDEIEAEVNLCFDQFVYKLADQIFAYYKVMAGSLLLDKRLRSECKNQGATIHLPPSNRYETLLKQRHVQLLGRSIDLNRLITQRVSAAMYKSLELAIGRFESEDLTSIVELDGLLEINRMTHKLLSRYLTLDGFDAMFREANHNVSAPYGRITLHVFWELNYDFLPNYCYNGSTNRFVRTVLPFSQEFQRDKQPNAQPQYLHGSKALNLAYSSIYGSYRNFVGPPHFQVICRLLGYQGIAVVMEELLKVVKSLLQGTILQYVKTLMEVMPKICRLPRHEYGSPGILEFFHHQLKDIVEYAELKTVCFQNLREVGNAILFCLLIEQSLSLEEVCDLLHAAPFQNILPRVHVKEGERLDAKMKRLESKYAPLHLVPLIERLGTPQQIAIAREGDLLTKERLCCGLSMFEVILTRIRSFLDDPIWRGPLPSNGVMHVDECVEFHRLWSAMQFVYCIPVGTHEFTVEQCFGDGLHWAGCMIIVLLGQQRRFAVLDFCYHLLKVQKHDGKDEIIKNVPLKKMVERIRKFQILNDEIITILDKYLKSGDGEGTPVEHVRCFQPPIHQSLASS

B1: SCR1, scrambled stapled control peptide for WAHM1 (peptide)
peptide: {Biotin-AEEEA}-SRA[S5]LLI[S5]TKIQNELK-NH2
modifications: staple 4-8; not fully specified
notes: Negative control; also called scrambled control (SCR) peptide 1; SCR peptides
With B1, the binding result is “no binding (tested: 10 µM)”.

B2: SCR2, scrambled stapled control peptide for WAHM2 (peptide)
peptide: {Biotin-AEEEA}-TRAILL[S5]ITK[S5]QNELK-NH2
modifications: staple 7-11; not fully specified
notes: Negative control; also called SCR peptides
As to B2, the binding result was “no binding (tested: 10 µM)”.
